According to patent publication US20250101453A1, “METHODS OF PARTHENOGENIC HAPLOID INDUCTION AND HAPLOID CHROMOSOME DOUBLING” (PIONEER HI-BRED INTERNATIONAL, INC., priority 2022, published 2025):
Where “and” joins values, the source holds several entries; their conditions need not be identical. Equal values may be shown once.

B1: ZM-ODP2-(266-669): truncated maize Ovule Development Protein 2 polypeptide (SEQ ID NO: 2) encoded by ZM-ODP2 (TR5); expressed from plasmid RV027603 under egg cell promoter (protein)
chain: MDTFGQRTSIYRGVTRHRWTGRYEAHLWDNSCRREGQTRKGRQVYLGGYDKEEKAARAYDLAALKYWGATTTTNFPVSNYEKELEDMKHMTRQEFVASLRRKSSGFSRGASIYRGVTRHHQHGRWQARIGRVAGNKDLYLGTFSTQEEAAEAYDIAAIKFRGLNAVTNFDMSRYDVKSILDSSALPIGSAAKRLKEAEAAASAQHHHAGVVSYDVGRIASQLGDGGALAAAYGAHYHGAAWPTIAFQPGAASTGLYHPYAQQPMRGGGWCKQEQDHAVIAAAHSLQDLHHLNLGAAGAHDFFSAGQQAAAAAMHGLGSIDSASLEHSTGSNSVVYNGGVGDSNGASAVGGSGGGYMMPMSAAGATTTSAMVSHEQVHARAYDEAKQAAQMGYESYLVNAENNGGG
modifications: Zea mays
notes: expressed from plasmid RV027603 under egg cell promoter
B2: ZM-ODP2-(266-668):At-CBF1a: fusion protein (SEQ ID NO: 15) of truncated ZM-ODP2 and C-repeat/DRE binding factor domain At-CBF1a; expressed from plasmid RV048759 under PvEC1 promoter (protein)
chain: MDTFGQRTSIYRGVTRHRWTGRYEAHLWDNSCRREGQTRKGRQVYLGGYDKEEKAARAYDLAALKYWGATTTTNFPVSNYEKELEDMKHMTRQEFVASLRRKSSGFSRGASIYRGVTRHHQHGRWQARIGRVAGNKDLYLGTFSTQEEAAEAYDIAAIKFRGLNAVTNFDMSRYDVKSILDSSALPIGSAAKRLKEAEAAASAQHHHAGVVSYDVGRIASQLGDGGALAAAYGAHYHGAAWPTIAFQPGAASTGLYHPYAQQPMRGGGWCKQEQDHAVIAAAHSLQDLHHLNLGAAGAHDFFSAGQQAAAAAMHGLGSIDSASLEHSTGSNSVVYNGGVGDSNGASAVGGSGGGYMMPMSAAGATTTSAMVSHEQVHARAYDEAKQAAQMGYESYLVNAENNGGGGGGGSGGGGSGGGGSTCAKDIQKAAAEAALAFQDETCDTTTTNHGLDMEETMVEAIYTPEQSEGAFYMDEETMFGMPTLLDNMAEGMLLPPPSVQWNHNYDGEGDGDVSLWSY

Columns and labels:
[1] = chemical chromosome doubling, Frei et al. 2018; cited from earlier work
unfertilized egg cell = test: In vivo genetic chromosome doubling: fertility (mature seed set) of self-pollinated regenerated T1 (D0) plants, Example 3; set-up: species or system Zea mays
From the text: Using the methods described in Example 2, T0 transgenic plants hemizygous for RV027603 (SEQ ID NO: 7) were obtained from a population of transformed immature diploid embryos. […] Using methods known in the art, single copy T0 plants were identified and grown to maturity. Upon the transition to flowering, the T0 plants were used as female parent plants to provide a donor ear.
(§1) The ears of the transgenic female parent plants were shoot-bagged before silk emergence to avoid any foreign pollen contamination. The silks of the donor ears were pollinated with viable pollen grains collected from the anthers of a haploid inducer parent plant, constituting a “haploid induction cross”.
(§2) Immature ears were harvested approximately 18 days after pollination, surface sterilized in 30% Clorox bleach plus 0.5% Micro detergent for 20 minutes and washed twice with sterile water. Immature embryos obtained from each donor ear comprising a biological replicate for a unique transformation event were plated on a petri dish containing 605B resting medium and incubated at 28° C. under dark conditions for 12-24 hours.
A total of 8 unique events for RV027603 were analyzed. Per event, two groups of haploid embryos were obtained given the hemizygous T-DNA from RV027603 inherited from the maternal plant. A first group of haploid embryos lacking inheritance of T-DNA from RV027603 was used to regenerate “null T1 plants”. A second group of haploid embryos that inherited a T-DNA from RV027603 was used to regenerate “hemizygous T1 plants”. No artificial chromosome doubling treatment, for example a chemical chromosome doubling treatment or agent, was provided to any of the haploid embryos during the experiment.
To assess the efficacy of in vivo genetic chromosome doubling in response to ZM-ODP2-(266-669) activity, the proportion of regenerated T1 plants capable of producing intact, mature seed was evaluated. The ear of each D0 (T1) plant for both the “null” or “hemizygous” T1 groups were shoot-bagged before silk emergence to avoid any foreign pollen contamination. The silks of the ears for each D0 (T1) plant were self-pollinated with pollen grains collected from the anthers of each D0 (T1) plant. After self-fertilization, the plants were grown to physiological maturity, the ears harvested, and D1 (T2) seed was counted per donor ear from each null and hemizygous plant per group per event. Seed counts for fertile plants were sorted into three categories: a low-range consisting of 1-24 kernels/ear, a medium-range consisting of 25-39 kernels/ear, and a high-range consisting of 40 or more kernels/ear.

[2] = system: Background 1 (PHR03 x PH184C); test: Haploid induction cross, haploid embryos scored by absence of paternal YFP, Background 1; format: in vivo, Zea mays
Procedure: as §1, §2
Using the methods described in Examples 2 and 3, T0 transgenic plants hemizygous for RV048759 (SEQ ID NO: 16) or RV027603 (SEQ ID NO: 7) were obtained from a population of transformed immature diploid embryos from two different genetic backgrounds. The first genetic background (hereinafter “Background 1”) was “PHR03 x PH184C” and the second genetic background (hereinafter “Background 2”) was X08D492.
The T0 transgenic plants hemizygous for RV048759 were used as female parent plants and the donor ears fertilized with pollen provided by a pollen donor. The silks of the donor ears were pollinated with viable pollen grains collected from the anthers of a haploid inducer parent plant, constituting a “haploid induction cross”.
(§3) A total of 13 unique events for RV048759 and a total of 7 unique events for RV027603 were analyzed in Background 1. A total of 13 unique events for RV048759 and a total of 11 unique events for RV027603 were analyzed in Background 2.

Background 2 (X08D492) = test: Haploid induction cross, haploid embryos scored by absence of paternal YFP, Background 2; format: in vivo, Zea mays
Procedure: as §1, §2
Using the methods described in Examples 2 and 3, T0 transgenic plants hemizygous for RV048759 (SEQ ID NO: 16) or RV027603 (SEQ ID NO: 7) were obtained from a population of transformed immature diploid embryos from two different genetic backgrounds. The first genetic background (hereinafter “Background 1”) was “PHR03 x PH184C” and the second genetic background (hereinafter “Background 2”) was X08D492. […]
as §3

Molecule	fertility rates for self-pollinated D0 plants [1]	self-pollinated hemizygous D0/T1 plants that produced 40 or more D1/T2 kernels (unfertilized egg cell; % of the hemizygous T1 group) [%]	average level of fertile hemizygous T1 plants (unfertilized egg cell; hemizygous T1 plants, across 8 events of RV027603, self-pollinated, no artificial chromosome doubling treatment) [%]	level of fertile null T1 plants (produced mature, intact seed) (unfertilized egg cell; null T1 plants lacking T-DNA of RV027603, same 8 events, self-pollinated)	self-pollinated hemizygous D0/T1 plants that produced 40 or more D1/T2 kernels (count) (unfertilized egg cell; of 38 self-pollinated D0/T1 plants)	average haploid induction rate [2] [%]	Haploid Induction Rate (%) ([2]; per event)	average haploid induction rate (Background 2 (X08D492)) [%]
COc1cc2c(c(OC)c1OC)-c1ccc(OC)c(=O)cc1[C@@H](NC(C)=O)CC2 [colchicine, (S)-N-(5,6,7,9-tetrahydro-1,2,3,10-tetramethoxy-9-oxobenzo (a)heptalen-7-yl) acetamide]	15-20%							
B1		83	14.9	3.2% and 3.17%	31	3.5	2.5% and 2.4% and 1.9% and 4.8% and 0.6% and 5.0% and 7.0%	15.1
B2						31.3		33.9
